Experimental findings from US20080280833A1, “Therapeutic Peptides Derived from Urokinase Plasminogen Activator Receptor” (priority 2005, published 2008) are described below.

This experiment deals with purified human αvβ3 integrin (Chemicon) (human) (UniProt P06756). Nature of the experiment: cell-free pull-down: 125I-suPAR + αvβ3 + uPA + D2A (5 µg), immunoprecipitation with LM609, densitometry.
Sequence of purified human αvβ3 integrin (Chemicon) (human) (P06756 31-1048, form in doubt, chain 1 of 2): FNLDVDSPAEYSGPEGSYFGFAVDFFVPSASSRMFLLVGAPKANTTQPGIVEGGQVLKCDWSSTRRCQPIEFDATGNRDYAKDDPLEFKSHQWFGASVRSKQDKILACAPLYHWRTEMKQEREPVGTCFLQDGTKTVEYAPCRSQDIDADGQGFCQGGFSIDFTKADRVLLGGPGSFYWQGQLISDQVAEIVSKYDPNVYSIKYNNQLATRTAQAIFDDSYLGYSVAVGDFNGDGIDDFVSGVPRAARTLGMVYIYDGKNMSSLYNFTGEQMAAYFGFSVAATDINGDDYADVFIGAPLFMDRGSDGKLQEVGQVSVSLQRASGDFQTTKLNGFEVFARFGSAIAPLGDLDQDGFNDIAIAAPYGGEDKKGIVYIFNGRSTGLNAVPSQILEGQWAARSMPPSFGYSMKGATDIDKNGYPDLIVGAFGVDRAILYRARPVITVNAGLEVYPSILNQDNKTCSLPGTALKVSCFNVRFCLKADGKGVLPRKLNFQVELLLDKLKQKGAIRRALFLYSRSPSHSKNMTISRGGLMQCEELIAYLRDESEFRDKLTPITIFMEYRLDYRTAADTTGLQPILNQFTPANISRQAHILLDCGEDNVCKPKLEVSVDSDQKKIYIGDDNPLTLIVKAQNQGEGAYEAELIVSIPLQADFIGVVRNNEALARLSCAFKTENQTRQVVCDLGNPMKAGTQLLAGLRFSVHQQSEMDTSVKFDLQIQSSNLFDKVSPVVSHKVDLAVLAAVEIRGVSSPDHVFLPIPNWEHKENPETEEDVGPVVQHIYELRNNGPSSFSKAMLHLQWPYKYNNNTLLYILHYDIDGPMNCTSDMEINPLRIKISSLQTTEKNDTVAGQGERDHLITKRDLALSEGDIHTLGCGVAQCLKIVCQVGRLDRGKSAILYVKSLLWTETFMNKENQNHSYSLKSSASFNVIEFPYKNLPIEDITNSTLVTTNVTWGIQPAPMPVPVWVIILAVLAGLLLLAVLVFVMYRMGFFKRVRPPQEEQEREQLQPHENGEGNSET
Sequence of purified human αvβ3 integrin (Chemicon) (human) (P05106 27-788, form in doubt, chain 2 of 2, further chain): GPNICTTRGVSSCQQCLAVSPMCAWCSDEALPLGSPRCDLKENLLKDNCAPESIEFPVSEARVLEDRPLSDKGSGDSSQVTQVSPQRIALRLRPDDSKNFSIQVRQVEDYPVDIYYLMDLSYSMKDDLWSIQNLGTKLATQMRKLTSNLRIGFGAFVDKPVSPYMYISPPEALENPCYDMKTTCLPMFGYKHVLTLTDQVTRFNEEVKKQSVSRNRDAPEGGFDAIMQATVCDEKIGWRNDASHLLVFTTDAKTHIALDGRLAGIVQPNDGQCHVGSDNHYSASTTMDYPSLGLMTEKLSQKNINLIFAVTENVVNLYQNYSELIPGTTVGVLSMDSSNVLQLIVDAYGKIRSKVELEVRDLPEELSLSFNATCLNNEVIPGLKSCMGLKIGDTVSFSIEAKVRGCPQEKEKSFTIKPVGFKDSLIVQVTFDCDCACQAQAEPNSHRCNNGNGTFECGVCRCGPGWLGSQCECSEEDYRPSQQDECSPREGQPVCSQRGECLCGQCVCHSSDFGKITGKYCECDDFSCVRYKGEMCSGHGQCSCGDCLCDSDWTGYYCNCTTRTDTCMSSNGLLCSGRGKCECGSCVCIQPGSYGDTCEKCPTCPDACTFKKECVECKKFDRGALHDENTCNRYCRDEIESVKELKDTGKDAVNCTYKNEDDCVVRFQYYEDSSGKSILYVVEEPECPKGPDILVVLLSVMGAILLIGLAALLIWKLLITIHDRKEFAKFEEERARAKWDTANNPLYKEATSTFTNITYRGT

Regarding “peptide D2A, synthetic peptide of domain 2 of human uPAR (aa130-142)”, the percent reduction of coimmunoprecipitated suPAR compared to uPA alone worked out at 50%.
